From patent publication US20200239541A1 (XYPHOS BIOSCIENCES, published 2020)

Legend:
Test in all cases: ELISA, ligand-Fc coated, biotinylated NKG2D titrated
[1] = target: T1, Y152A mutant NKG2D ectodomain (His-avitag, biotinylated) (human)
T1 construct: also called Y152A non-natural NKG2D receptor; not shown: N-terminal His-avitag
T1 chain: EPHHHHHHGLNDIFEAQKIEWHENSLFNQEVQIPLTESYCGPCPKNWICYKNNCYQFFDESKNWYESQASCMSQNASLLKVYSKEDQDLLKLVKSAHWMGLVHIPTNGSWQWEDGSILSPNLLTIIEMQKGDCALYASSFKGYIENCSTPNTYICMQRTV
Procedure: (§1) In addition to purifying the above 3 Fc-fusion proteins NKG2D ligand-Fc fusion proteins MICB-Fc, ULBP1-Fc, ULBP2-Fc, ULBP3-Fc, and ULBP4-Fc were purchased from R&D Systems, Inc. (Minneapolis, Minn.). Binding of the different α1-α2 domain-Fc fusions to both natural and non-natural NKG2D ectodomain proteins was analyzed using a plate-based ELISA method. All of the natural and non-natural α1-α2 domain-Fc fusions were coated overnight at 4° C. onto separate wells of Maxisorp 96 well plates using a coating concentration of 2 μg/ml in phosphate-buffered saline (PBS). The plates were washed 3-times in PBS/0.05% Tween20 at 20-22° C., and blocked with 0.5% bovine serum albumin for 2 hours. The biotinylated natural and non-natural NKG2D receptor proteins were titrated against the plate-bound NKG2D ligands for 2 hours at 20-22° C., washed 3 times with PBS/0.05% Tween20 at 20-22° C., and the bound NKG2D proteins subsequently detected using a streptavidin-HRP secondary detection step and developed with 1-Step Ultra TMB Elisa.

[2] = target: T2, Y199A mutant NKG2D ectodomain (His-avitag, biotinylated) (human)
T2 construct: not shown: N-terminal His-avitag
T2 chain: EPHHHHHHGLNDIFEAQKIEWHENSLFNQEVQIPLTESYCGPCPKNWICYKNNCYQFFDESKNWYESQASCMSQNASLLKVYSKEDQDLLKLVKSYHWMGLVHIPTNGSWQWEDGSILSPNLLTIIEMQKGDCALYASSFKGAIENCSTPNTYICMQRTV
Procedure: as §1

[3] = target: T3, double Y152A plus Y199A mutant NKG2D ectodomain (His-avitag, biotinylated) (human)
T3 construct: not shown: N-terminal His-avitag
T3 chain: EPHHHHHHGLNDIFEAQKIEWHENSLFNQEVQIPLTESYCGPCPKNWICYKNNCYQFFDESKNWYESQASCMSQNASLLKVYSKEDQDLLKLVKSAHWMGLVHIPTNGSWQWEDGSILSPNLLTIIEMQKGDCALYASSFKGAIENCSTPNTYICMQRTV
Procedure: as §1

Measured: binding result

B1: MICA-Fc (α1-α2-α3-Fc fusion, made in 293 cells) (Fc fusion)
chain: EPHSLRYNLTVLSWDGSVQSGFLTEVHLDGQPFLRCDRQKCRAKPQGQWAEDVLGNKTWDRETRDLTGNGKDLRMTLAHIKDQKEGLHSLQEIRVCEIHEDNSTRSSQHFYYDGELFLSQNLETKEWTMPQSSRAQTLAMNVRNFLKEDAMKTKTHYHAMHADCLQELRRYLKSGVVLRRTVPPMVNVTRSEASEGNITVTCRASGFYPWNITLSWRQDGVSLSHDTQQWGDVLPDGNGTYQTWVATRISQGEEQRFTCYMEHSGNHSTHPVPSGKIEGRMDPKSCDKTHTCPPCPAPELLGGPSVFLFPPKPKDTLMISRTPEVTCVVVDVSHEDPEVKFNWYVDGVEVHNAKTKPREEQYNSTYRVVSVLTVLHQDWLNGKEYKCKVSNKALPAPIEKTISKAKGQPREPQVYTLPPSRDELTKNQVSLTCLVKGF
no binding: all assays above
